The target in assay [1] is human insulin receptor (human) (UniProt P06213). Kind of assay: SPR (Biacore), soluble sortilin 50-500 nM over immobilized human insulin receptor.
The target of assay [2] is murine insulin receptor (murine) (UniProt P15208). Nature of the assay: SPR (Biacore), soluble sortilin 50-500 nM over immobilized murine insulin receptor.
The target of assay [3] is human insulin receptor (human) (UniProt P06213). Nature of the assay: Surface plasmon resonance (Biacore); human insulin receptor immobilized (0.0609 pmol/mm^2), sortilin injected at 50-500 nM, CaHBS buffer.
The target in assay [4] is murine insulin receptor (murine) (UniProt P15208). Nature of the assay: Surface plasmon resonance (Biacore); murine insulin receptor (mIR) immobilized (0.0607 pmol/mm^2), sortilin injected at 50-500 nM, CaHBS buffer.

The text below walks through data of patent US20220033470A1.

“Soluble sortilin (from UniProt Q99523 78-755) (receptor)”: the Kd in assay [1] turned out to be 40 nM; in assay [2] it was 40 nM; in assay [3] it was 46 nM; in assay [4], 42 nM.
